Laboratory results published in PMC11246403.

Legend:
rat C3b (rat) = rat C3b (rat) (UniProt P01026); assay: ELISA
[1] = biological target: cynomolgus VEGF (cynomolgus monkey); assay: ELISA
[2] = biological target: cynomolgus C3b (cynomolgus monkey); assay: ELISA
Human VEGF165 (human) = assay: ELISA
human C3b (human) = human C3b (human) (UniProt P01024); assay: ELISA
C3 = C3 (UniProt P01024); assay: ELISA
rat VEGF (rat) = rat VEGF (rat) (UniProt P16612); assay: ELISA
rabbit C3b (rabbit) = rabbit C3b (rabbit) (UniProt P12247); assay: ELISA
Chain of UniProt P12247 (P12247 whole entry, chain 1 of 2): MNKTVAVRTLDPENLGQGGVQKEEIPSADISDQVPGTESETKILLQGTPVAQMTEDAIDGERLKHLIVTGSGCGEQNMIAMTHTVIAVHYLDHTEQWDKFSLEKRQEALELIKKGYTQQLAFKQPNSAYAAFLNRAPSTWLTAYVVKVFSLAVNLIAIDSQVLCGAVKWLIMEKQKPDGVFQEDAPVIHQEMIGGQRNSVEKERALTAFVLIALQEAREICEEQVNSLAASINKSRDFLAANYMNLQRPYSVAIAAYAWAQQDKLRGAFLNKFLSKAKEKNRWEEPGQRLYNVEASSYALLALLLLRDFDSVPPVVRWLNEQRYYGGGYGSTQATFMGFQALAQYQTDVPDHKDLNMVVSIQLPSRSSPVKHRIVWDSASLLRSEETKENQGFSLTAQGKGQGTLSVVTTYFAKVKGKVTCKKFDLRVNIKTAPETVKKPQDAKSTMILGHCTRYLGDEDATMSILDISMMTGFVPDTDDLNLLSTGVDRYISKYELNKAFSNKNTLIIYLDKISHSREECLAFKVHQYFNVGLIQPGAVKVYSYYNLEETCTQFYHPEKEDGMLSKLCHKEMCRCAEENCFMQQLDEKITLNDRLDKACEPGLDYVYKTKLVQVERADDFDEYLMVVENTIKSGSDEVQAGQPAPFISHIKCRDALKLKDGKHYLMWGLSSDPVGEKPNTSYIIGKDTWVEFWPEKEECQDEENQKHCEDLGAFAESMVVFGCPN
Chain of UniProt P12247 (P12247 whole entry, chain 2 of 2): as the sequence (P12247 whole entry, chain 1 of 2) above

rabbit VEGF (rabbit) = assay: ELISA
KNP-301 = KNP-301 (UniProt Q9Y279); assay: SPR

Chain of UniProt P01026 (P01026 25-1663): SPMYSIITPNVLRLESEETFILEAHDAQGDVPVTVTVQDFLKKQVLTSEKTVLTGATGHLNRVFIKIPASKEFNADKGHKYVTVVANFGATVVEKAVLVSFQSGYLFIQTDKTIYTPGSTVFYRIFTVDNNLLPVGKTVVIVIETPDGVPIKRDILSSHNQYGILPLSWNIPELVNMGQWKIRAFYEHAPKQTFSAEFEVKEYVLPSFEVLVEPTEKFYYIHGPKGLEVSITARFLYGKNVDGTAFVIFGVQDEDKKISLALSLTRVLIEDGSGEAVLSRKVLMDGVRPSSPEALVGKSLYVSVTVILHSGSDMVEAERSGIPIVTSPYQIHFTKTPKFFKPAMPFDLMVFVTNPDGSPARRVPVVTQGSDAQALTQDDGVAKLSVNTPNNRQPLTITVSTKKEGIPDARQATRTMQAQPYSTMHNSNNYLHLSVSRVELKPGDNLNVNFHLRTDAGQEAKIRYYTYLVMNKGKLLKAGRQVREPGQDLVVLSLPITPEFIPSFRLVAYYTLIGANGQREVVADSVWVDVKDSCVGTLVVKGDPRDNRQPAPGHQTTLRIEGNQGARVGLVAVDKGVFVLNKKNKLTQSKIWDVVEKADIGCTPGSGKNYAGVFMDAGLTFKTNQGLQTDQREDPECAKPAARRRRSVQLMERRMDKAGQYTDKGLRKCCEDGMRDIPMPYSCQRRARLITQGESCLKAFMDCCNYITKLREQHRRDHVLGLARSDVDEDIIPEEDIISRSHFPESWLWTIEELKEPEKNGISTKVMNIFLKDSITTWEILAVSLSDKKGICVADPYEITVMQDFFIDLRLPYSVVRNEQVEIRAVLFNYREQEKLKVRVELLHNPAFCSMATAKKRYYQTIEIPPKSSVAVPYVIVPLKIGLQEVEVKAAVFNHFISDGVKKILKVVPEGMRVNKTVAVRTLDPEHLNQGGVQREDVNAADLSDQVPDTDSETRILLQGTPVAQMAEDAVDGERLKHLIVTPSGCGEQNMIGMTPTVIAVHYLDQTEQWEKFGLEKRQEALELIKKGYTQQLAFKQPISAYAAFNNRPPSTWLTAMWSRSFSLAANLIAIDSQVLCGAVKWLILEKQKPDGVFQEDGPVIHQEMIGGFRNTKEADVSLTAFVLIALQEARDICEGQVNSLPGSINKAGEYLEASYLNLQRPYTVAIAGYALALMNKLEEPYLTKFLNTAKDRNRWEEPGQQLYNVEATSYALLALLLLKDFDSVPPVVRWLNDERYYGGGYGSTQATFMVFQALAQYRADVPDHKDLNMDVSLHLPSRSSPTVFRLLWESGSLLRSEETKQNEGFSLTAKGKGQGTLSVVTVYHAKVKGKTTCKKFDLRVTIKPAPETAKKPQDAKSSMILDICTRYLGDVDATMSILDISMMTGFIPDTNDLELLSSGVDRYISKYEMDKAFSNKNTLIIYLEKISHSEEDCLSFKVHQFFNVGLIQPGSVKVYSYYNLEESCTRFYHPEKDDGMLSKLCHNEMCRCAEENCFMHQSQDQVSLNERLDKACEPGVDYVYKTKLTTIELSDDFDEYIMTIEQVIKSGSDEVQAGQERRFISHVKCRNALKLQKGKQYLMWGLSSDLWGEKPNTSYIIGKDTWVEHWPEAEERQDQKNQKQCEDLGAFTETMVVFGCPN

| relative binding affinity (%) (rat C3b (rat)) | relative binding affinity (%) [1] [%] | relative binding affinity (%) [2] [%] | relative binding affinity (%) (Human VEGF165 (human)) | relative binding affinity (%) (human C3b (human)) | fold lower binding affinity than to C3b (ratio of IC50 values) (C3) [fold] | relative binding affinity (%) (rat VEGF (rat)) | relative binding affinity (%) (rabbit C3b (rabbit)) | relative binding affinity (%) (rabbit VEGF (rabbit)) | Kd (KNP-301) [nM] | Substance |
| --- | --- | --- | --- | --- | --- | --- | --- | --- | --- | --- |
| 6.3 | 75.8 | 78.3 | 100 | 100 | 10 | 80.8 | 1.2 | 165 |  | KNP-301 (from UniProt Q9Y279 20-283) (Fc fusion) |
|  |  |  |  |  |  |  |  |  | 0.0628 | Human VEGF165 (ligand) |
|  |  |  |  |  |  |  |  |  | 4.34 | human C3b (from UniProt P01024 23-667; P01024 749-1663) (natural protein) |
